Measured values reported in PMC3538841.

Legend:
Experiment in all cases: negative stain EM reconstruction
[1] = biological target: A/Hong Kong/1/1968 (H3N2) HA (influenza A virus A/Hong Kong/1/1968 (H3N2)) (UniProt Q91MA7)
[2] = biological target: A/Netherlands/219/2003 (H7N7) HA (influenza A virus A/Netherlands/219/2003 (H7N7)) (UniProt Q6VMK1)
[3] = biological target: A/South Carolina/1/1918 (H1N1) HA (influenza A virus A/South Carolina/1/1918 (H1N1)) (UniProt Q9WFX3)
[4] = biological target: Wisc66/H9 HA (influenza A virus, Wisc66 (H9))

Measured: stoichiometry N (Fabs per HA trimer)

Fab CR9114
3: all assays above
